Experimental data from patent publication US20230128075A1 (University of Texas, published 2023).

Columns and labels:
[1] = molecular target: T1, ADP-HSP70 (ADP-enriched HSP70) (Homo sapiens (Human), UniProt P0DMV8 1-641); assay: BLI, 77A on sensor
T1 construct: also called ADP-HSP70 complexes
Protocol: HSP70 was expressed in SF9 cells. Affinity chromatography using resins selective for ADP or ATP-binding proteins were used to enrich bulk preparations of the correspondingly bound HSP70 recombinant protein. Protein concentrations, determined after elution, were measured so that equal concentrations could be used in subsequent assays. For BLI-based assays, antibodies and reagents were diluted out onto microwell plates and loaded into the instrument. Antibodies being tested were immobilized onto dip-and-read sensors and then observed for kinetics during binding to ATP or ADP-enriched HSP70. For ELISA, the relevant enriched HSP70 proteins were directly coated onto ELISA plate wells overnight. Test antibodies were then serially diluted across the plate wells, and detected using an appropriate secondary antibody-HRP conjugate. The plates were developed using a TMB substrate, and the O.D. stabilized using an acid stop solution.

[2] = molecular target: T2, 614; assay: immunoprecipitation from cell lysate (CL) with 77A, Western blot GFP [panel C]
T2 construct: lane label in panel C
T2 sequence (chain, as listed by the source limits assumed): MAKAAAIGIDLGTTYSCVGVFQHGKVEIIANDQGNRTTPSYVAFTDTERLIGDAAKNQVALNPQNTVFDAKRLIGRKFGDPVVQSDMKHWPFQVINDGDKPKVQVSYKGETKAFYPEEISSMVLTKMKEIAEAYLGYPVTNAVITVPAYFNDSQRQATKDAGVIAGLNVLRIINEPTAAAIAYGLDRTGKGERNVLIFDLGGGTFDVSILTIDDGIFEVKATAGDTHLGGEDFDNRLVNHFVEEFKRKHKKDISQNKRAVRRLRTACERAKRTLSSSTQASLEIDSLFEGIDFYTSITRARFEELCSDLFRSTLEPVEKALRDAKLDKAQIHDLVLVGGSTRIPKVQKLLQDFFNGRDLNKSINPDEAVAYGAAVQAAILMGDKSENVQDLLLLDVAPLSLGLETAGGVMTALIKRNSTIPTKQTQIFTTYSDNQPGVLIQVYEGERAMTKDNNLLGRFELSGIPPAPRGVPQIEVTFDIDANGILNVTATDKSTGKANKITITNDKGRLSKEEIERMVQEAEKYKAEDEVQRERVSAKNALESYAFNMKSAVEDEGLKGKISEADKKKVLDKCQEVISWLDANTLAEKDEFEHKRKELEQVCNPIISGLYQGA
Protocol: (§1) IP of cell extracts with 77A was followed by detection of proteins by Western blotting (WB) with an anti-GFP antibody (B). Smaller deletions were then generated for finer mapping (C), and the indicated IPs were performed from cell lysates (CL) or culture media supernatants (CM). Loading was confirmed with an a-light chain (LC) antibody. The putative binding domain for 77A is indicated on a molecular model of HSP70 representing the relevant region of the protein (D). The exact amino acids that comprise the 77A epitope were determined using alanine scanning analysis, and the results are shown in (E), and the ribbon diagram showing the primary and secondary critical sites is shown in (F).
(§2) Alanine scanning analysis was performed to identify key amino acids in HSP70 with which 77A interacts (FIG. 3E).

[3] = molecular target: T3, 534; assay: immunoprecipitation of cell extracts with 77A, Western blot with anti-GFP [panel B]
T3 construct: lane label in panels A and B
T3 sequence (chain, as listed by the source limits assumed): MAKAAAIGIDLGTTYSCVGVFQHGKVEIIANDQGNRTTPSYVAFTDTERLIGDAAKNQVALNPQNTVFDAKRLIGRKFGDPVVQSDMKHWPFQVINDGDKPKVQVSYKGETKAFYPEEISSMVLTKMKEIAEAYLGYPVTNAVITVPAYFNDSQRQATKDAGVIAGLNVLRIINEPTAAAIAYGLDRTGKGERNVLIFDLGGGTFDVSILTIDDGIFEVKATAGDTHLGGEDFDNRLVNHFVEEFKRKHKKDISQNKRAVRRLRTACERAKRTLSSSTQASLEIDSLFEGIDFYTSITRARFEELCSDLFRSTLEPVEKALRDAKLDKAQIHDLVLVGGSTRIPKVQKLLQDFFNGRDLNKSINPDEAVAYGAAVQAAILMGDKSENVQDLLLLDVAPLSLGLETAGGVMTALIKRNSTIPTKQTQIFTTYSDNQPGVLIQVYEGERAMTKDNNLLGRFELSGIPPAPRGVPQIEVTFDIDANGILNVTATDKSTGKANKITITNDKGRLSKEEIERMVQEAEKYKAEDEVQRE
Protocol: as §1, §2

T1 sequence (P0DMV8 whole entry): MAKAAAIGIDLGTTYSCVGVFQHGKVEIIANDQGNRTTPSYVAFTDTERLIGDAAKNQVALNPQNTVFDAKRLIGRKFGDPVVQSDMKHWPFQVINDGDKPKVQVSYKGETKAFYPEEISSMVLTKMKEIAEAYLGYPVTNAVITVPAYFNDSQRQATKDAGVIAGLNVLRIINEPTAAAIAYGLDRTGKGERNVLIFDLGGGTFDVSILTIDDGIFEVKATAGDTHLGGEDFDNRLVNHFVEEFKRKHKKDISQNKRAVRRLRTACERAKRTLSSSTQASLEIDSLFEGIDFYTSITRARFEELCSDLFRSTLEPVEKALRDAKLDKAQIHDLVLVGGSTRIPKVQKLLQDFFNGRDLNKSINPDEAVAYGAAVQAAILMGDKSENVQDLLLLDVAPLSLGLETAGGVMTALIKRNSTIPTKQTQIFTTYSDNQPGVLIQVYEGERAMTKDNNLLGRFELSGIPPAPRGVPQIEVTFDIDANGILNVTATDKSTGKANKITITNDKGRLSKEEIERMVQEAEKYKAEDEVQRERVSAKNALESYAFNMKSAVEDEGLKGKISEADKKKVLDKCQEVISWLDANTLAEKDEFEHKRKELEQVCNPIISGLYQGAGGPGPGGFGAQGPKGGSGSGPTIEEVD

fold greater affinity (KD) than for ATP-enriched HSP70 [1]: ≥ 4 fold
binding result [2]: binds
binding result [3]: binds
B1: 77A antibody (clone 77A, murine anti-HSP70 mAb) (antibody, V domains shown)
VH: QIQLVQSGPELKKPGETVKISCKASGYTFTNYGMNWVKQAPGKGLKWMGWINTYTGEPTYADDFKGRFAFSLETSATTAYLQINNLKNEDTATYFCARYDHAMDYWGQGTSVTVSS
VL: DIVMSQSPSSLAVSAGEKVTMSCKSSQSLLNSGTRKNYLAWYQQKPGQSPKLLIYWTSTRESGVPDRFTGSGSGTDFTLTINSVQAEDLAVYYCKQSYTLYTFGGGTKLEIK
notes: Murine hybridoma mAb; its isotype control is IgG2B; also called mAb 77A
